The source of these data is PMC3963902, “Esterase LpEst1 from Lactobacillus plantarum: A Novel and Atypical Member of the αβ Hydrolase Superfamily of Enzymes” (PLoS ONE, 2014).

Substrate in data set [1]: CC(=O)Oc1ccc([N+](=O)[O-])cc1
Briefly: spectrophotometric p-nitrophenol release. Particulars: 50 mM sodium phosphate, pH 7.0, 30 °C. The data set is classed as biochemical, Lactiplantibacillus plantarum. An excerpt: (§1) spectrophotometric p-nitrophenol release on LpEst1

Substrate in data set [2]: CCCC(=O)Oc1ccc([N+](=O)[O-])cc1
Briefly: spectrophotometric p-nitrophenol release. In kind it is biochemical, Lactiplantibacillus plantarum. Particulars: 50 mM sodium phosphate, pH 7.0, 30 °C.
Text: as §1

B1: LpEst1 (Lactiplantibacillus plantarum) (protein)
chain: MPTINSIQTTVNGVVKIVKPFNNDIAGEQFDPHVLQTLTAFKQPAILENDLAALRSGSLTPAIADPVGDAVTVQSRNITALNRTVSVEWLTPQNVINHTVLVYFHGGAFYGGVPGNNTVLLKLVAAKSHCEILNVDYSLAPEAPAPAGILDGLAIFQYLEQRDAETMITVAGDSAGANVIMAATNLNQQLGSNRINQQLLLYPVTAPNADHAGPLWDLAAFPIIDSQRAILTNYHDLFRQLDSIMTDYYVPENFDSHSPLISPLHQENFTMTPPTTIMVGEFDPFRPQAWAYAQRLAAADTATTFIQYQGLNHAFAPLVDQYWQSQDVAQVMAAALI
notes: homodimer
B1: in data set [1], the Km was 380 ± 50 µM, the maximal velocity (Vmax) came out at 75 µmol/min/mg and the catalytic constant (kcat) is 40.4 ± 2 s⁻¹. Further, in data set [2], the Michaelis-Menten constant (Km) worked out at 200 ± 100 µM, the Vmax came to 8 µmol/min/mg and the kcat turned out to be 4.4 ± 0.3 s⁻¹.
